Test results from PMC13042514, “Comprehensive Profiling of N 6‐methyladnosine (m6A) Readouts Reveals Novel m6A Readers That Regulate Human Embryonic Stem Cell Differentiation”.

Tests used:
Assay in all cases: EMSA; EMSA: Beyotime GS606 kit binding buffer (composition not given), 1 ug protein and 1 uL of 2.5 nM biotin probe in 10 uL, on ice 10 min; pull-down: Pierce 20164 kit, 50 pmol RNA, 200 ug total protein, 4 C 30-60 min
Conditions in all cases: protein: recombinant; tags: GST; label: biotin; single strand
GST-FUBP3 = GST-FUBP3 (UniProt Q96I24 1-572)
Chain of GST-FUBP3 (Q96I24 whole entry): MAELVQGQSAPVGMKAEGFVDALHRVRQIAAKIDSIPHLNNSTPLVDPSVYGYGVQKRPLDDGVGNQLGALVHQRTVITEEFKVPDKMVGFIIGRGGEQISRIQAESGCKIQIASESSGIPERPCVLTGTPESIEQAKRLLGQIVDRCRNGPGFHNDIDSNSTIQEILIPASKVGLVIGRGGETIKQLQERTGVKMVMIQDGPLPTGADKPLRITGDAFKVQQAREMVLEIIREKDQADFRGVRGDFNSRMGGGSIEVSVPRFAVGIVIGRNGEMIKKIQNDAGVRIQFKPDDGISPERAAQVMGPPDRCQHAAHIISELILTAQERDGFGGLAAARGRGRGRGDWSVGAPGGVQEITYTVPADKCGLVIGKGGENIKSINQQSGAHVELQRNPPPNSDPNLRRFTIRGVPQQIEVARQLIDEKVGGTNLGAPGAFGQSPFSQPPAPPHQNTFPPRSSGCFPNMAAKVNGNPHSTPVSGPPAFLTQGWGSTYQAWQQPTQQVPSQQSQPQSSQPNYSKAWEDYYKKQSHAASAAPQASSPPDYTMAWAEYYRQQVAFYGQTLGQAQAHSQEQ

GST-DDX6 = GST-DDX6 (UniProt P26196 1-483)
Chain of GST-DDX6 (P26196 whole entry): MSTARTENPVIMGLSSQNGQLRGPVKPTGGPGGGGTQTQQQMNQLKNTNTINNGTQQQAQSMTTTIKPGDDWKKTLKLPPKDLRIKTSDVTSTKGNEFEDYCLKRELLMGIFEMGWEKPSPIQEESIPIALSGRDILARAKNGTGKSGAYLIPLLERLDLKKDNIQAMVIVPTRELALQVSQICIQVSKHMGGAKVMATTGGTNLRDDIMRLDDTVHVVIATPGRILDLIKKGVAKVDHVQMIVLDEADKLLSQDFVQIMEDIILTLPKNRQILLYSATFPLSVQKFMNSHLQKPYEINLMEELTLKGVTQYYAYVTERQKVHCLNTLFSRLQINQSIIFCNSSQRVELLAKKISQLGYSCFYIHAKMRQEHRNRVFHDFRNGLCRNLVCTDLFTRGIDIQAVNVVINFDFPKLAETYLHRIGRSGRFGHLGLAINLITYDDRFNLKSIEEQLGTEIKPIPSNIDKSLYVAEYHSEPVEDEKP

GST-L1TD1 = molecular target: T1, GST-L1TD1 (UniProt Q5T7N2 1-865)
T1 sequence: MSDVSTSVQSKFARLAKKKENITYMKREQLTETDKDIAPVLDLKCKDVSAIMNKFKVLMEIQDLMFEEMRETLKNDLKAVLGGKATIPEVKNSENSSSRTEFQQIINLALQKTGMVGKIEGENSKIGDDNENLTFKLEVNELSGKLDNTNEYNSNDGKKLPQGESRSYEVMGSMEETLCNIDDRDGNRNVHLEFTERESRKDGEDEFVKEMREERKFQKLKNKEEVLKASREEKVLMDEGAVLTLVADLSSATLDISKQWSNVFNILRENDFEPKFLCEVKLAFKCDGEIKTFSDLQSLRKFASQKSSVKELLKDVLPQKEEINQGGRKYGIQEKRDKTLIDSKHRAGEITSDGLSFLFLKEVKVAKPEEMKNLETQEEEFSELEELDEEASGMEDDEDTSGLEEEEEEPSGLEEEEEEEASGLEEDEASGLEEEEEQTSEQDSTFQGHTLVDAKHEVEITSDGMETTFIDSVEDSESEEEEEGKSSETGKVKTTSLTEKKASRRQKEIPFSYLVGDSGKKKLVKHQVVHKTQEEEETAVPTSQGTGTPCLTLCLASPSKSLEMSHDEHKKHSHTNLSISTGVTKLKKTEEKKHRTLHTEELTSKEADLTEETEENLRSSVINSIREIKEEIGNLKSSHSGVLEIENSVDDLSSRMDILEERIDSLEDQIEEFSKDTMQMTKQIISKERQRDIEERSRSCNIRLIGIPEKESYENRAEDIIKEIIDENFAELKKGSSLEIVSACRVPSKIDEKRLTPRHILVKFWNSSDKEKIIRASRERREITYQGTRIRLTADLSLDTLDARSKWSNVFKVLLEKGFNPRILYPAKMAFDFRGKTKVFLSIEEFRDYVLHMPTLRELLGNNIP

GST-FXR2 = GST-FXR2 (UniProt P51116 1-673)
Chain of GST-FXR2 (P51116 whole entry): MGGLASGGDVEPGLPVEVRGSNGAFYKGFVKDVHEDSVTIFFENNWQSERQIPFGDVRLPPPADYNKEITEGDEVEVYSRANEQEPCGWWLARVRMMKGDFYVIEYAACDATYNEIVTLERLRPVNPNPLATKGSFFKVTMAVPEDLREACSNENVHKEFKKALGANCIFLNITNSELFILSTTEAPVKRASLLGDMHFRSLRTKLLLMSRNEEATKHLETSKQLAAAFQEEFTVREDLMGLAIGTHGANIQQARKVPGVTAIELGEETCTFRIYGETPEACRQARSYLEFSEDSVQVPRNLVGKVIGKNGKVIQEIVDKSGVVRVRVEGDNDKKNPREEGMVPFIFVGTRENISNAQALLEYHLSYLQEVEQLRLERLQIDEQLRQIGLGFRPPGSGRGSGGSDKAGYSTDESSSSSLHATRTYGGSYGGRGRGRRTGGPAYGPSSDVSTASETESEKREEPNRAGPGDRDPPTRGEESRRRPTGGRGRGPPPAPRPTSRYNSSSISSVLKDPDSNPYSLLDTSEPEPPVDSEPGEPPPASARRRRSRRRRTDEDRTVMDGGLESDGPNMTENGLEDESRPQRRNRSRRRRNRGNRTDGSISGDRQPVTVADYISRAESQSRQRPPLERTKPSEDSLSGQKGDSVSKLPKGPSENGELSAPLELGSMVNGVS

Measured: binding result

CGUCUCGGACUCGGACUGCU (ssRNA, m6A at positions 9 and 15) [ss-m6A (EMSA)]
binds: all assays above
